Data published in US20070031907A1, “Anaplastic lymphoma kinase assay, reagents and compositions thereof” (Istituto Nazionale Per Lo Studio E La Cura Dei Tumori, priority 2003, published 2007).

Substrate: CC[C@H](C)[C@H](NC(=O)[C@H](CC(=O)O)NC(=O)[C@H](CCCNC(=N)N)NC(=O)[C@H](C)N)C(=O)N[C@@H](Cc1ccc(O)cc1)C(=O)N[C@@H](CCCNC(=N)N)C(=O)N[C@@H](C)C(=O)N[C@@H](CO)C(=O)N[C@@H](Cc1ccccc1)C(=O)N[C@@H](Cc1ccccc1)C(=O)N[C@@H](CCCNC(=N)N)C(=O)N[C@@H](CCCCN)C(=O)NCC(=O)NCC(=O)N[C@@H](CS)C(=O)N[C@@H](C)C(=O)N[C@@H](CCSC)C(=O)N[C@@H](CC(C)C)C(=O)N1CCC[C@H]1C(=O)N[C@H](C(=O)N[C@@H](CCCCN)C(=O)O)C(C)C
Assay: Peptide phosphorylation (radioactive assay) with rALK
Format: biochemical, human
Details: other: kinetic constants for rALK with synthetic peptides as substrate; pH 7.5; 30.0 °C
Description: The reactions were terminated after 10 min of incubation at 30° C. by spotting 25 μl of the mixture onto P81 phosphocellulose papers, which were processed as described elsewhere (1). Kinetic constants were determined by GraphPad Prism software fitting the data directly to the Michaelis-Menten equation using nonlinear regression.

B1: rALK (ALK catalytic domain, Leu1073 to Ala1459) (Homo sapiens) (protein)
chain: LQSPEYKLSKLRTSTIMTDYNPNYCFAGKTSSISDLKEVPRKNITLIRGLGHGAFGEVYEGQVSGMPNDPSPLQVAVKTLPEVCSEQDELDFLMEALIISKFNHQNIVRCIGVSLQSLPRFILLELMAGGDLKSFLRETRPRPSQPSSLAMLDLLHVARDIACGCQYLEENHFIHRDIAARNCLLTCPGPGRVAKIGDFGMARDIYRASYYRKGGCAMLPVKWMPPEAFMEGIFTSKTDTWSFGVLLWEIFSLGYMPYPSKSNQEVLEFVTSGGRMDPPKNCPGPVYRIMTQCWQHQPEDRPNFAIILERIEYCTQDPDVINTALPIEYGPLVEEEEKVPVRPKDPEGVPPLLVSQQAKREEERSPAAPPPLPTTSSGKAAKKPTAA
notes: A portion of ALK, stretching from amino acids Leu^1073 to Ala^1459, has been cloned into the baculovirus transfer vector; made in house; host or cells: Sf9 (Spodoptera frugiperda) insect cells, baculovirus (pBlueBacHis2C, MaxBac 2.0)
B1 gave a Km of 109.4 µM and a Vmax of 0.000186 µmol/min.
